Molecular target: HLA-A2 (human)
Assay: assembly assay, T2 cells, [35S]-labelled class I MHC, immunoprecipitation and IEF

| C50 (peptide concentration for half maximal binding) [µM] | Binder |
| --- | --- |
| 1 | SLGSPVLGL (Synthetic peptide bought from Research Genetics, >80% purity) [ML-IAP34 (SLGSPVLGL)] |
| 30 | GMGSEELRL (Synthetic peptide bought from Research Genetics, >80% purity) [ML-IAP83 (GMGSEELRL)] |
| > 100 | VLEPPGARDV (Synthetic peptide bought from Research Genetics, >80% purity) [ML-IAP230 (VLEPPGARDV)] |
| 1 | QILGQLRPL (Synthetic peptide bought from Research Genetics, >80% purity) [ML-IAP54 (QILGQLRPL)] |
| 0.9 | LTAEVPPEL (Synthetic peptide bought from Research Genetics, >80% purity) [ML-IAP99 (LTAEVPPEL)] |
| 1 | RLQEERTCKV (Synthetic peptide bought from Research Genetics, >80% purity) [ML-IAP245 (RLQEERTCKV)] |
| 10 | LLRSKGRDFV (Synthetic peptide bought from Research Genetics, >80% purity) [ML-IAP154 (LLRSKGRDFV)] |
| > 100 | PLTAEVPPEL (Synthetic peptide bought from Research Genetics, >80% purity) [ML-IAP98 (PLTAEVPPEL)] |
| 20 | QLCPICRAPV (Synthetic peptide bought from Research Genetics, >80% purity) [ML-IAP280 (QLCPICRAPV)] |
| 0.2 | RLASFYDWPL (Synthetic peptide bought from Research Genetics, >80% purity) [ML-IAP90 (RLASFYDWPL)] |

From patent US20070036811A1 (KRAEFTENS BEKAEMPELSE, published 2007)
